From article doi:10.1101/2022.02.08.479534, “FoxP3 can fold into two distinct dimerization states with divergent functional implications for T cell homeostasis” come the findings set out here.

Data set [1] has as its target T1, MBP-FoxP3ΔN (Mus musculus, UniProt Q99JB6 188-423).
T1 sequence: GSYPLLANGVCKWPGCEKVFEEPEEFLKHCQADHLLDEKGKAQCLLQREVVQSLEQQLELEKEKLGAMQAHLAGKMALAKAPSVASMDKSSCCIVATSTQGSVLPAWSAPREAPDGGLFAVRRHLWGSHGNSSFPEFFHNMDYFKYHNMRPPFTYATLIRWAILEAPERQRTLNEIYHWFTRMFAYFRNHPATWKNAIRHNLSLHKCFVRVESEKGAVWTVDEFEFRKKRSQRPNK
Nature of the data set: MBP pull-down; strong; EMSA: 0.2 uM DNA, 20 mM Tris pH 7.5, 150 mM NaCl, 1.5 mM MgCl2, 2 mM DTT, 30 min at 4 C; anti-HA bead DNA pull-down: 20 min at room temperature; the EMSA IR-FKHM4g length is taken as 31 bp. Conditions: protein: recombinant; tags: His6-MBP; blunt. A general note: Mobility shift assays separate free from complexed probe on a gel.

The target of data set [2] is T2, FoxP3ΔN;NFAT1 (394-680) (Mus musculus;Mus musculus, UniProt Q99JB6;Q60591 188-423;394-680, |).
T2 sequence 1: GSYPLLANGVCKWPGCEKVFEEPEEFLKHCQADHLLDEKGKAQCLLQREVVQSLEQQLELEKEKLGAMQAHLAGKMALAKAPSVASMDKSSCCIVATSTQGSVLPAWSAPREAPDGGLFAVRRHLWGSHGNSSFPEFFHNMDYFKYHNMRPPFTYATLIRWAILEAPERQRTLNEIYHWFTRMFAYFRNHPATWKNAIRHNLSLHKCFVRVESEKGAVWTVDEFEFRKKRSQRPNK
T2 sequence 2: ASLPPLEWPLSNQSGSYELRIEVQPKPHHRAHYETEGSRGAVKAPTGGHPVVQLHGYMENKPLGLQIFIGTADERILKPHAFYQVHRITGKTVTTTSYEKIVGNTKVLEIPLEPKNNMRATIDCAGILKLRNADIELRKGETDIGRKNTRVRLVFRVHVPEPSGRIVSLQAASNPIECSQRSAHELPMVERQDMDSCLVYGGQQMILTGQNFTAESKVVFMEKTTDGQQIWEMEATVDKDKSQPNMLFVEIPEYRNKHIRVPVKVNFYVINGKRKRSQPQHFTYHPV
Put plainly: restriction enzyme protection; 1.6 uM FoxP3, 0.4 uM NFAT; XhoI and BamHI protected, EcoRI accessible; EMSA: 0.2 uM DNA, 20 mM Tris pH 7.5, 150 mM NaCl, 1.5 mM MgCl2, 2 mM DTT, 30 min at 4 C; anti-HA bead DNA pull-down: 20 min at room temperature; the EMSA IR-FKHM4g length is taken as 31 bp. Conditions: protein: recombinant;recombinant; tags: His6-NusA cleaved (HRV3C);His6-NusA cleaved; blunt.

In data set [3] the target is T1, MBP-FoxP3ΔN. Nature of the data set: MBP pull-down; EMSA: 0.2 uM DNA, 20 mM Tris pH 7.5, 150 mM NaCl, 1.5 mM MgCl2, 2 mM DTT, 30 min at 4 C; anti-HA bead DNA pull-down: 20 min at room temperature; the EMSA IR-FKHM4g length is taken as 31 bp. The note with it: protein: recombinant; tags: His6-MBP; blunt.
The target in another data set is T3, NusA-FoxP2RBR-forkhead (Mus musculus, UniProt P58463 447-588).
T3 sequence: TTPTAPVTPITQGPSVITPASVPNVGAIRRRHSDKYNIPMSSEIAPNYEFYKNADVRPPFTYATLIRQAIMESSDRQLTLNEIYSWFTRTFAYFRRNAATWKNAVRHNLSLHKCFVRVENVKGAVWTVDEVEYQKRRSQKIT
Nature of the data set: EMSA; equal to IR-FKHM4g; EMSA: 0.2 uM DNA, 20 mM Tris pH 7.5, 150 mM NaCl, 1.5 mM MgCl2, 2 mM DTT, 30 min at 4 C; anti-HA bead DNA pull-down: 20 min at room temperature; the EMSA IR-FKHM4g length is taken as 31 bp. Conditions: protein: recombinant; tags: His6-NusA; blunt.

In the next data set the target is T4, NusA-FoxP4RBR-forkhead (Mus musculus, UniProt Q9DBY0 418-577).
T4 sequence: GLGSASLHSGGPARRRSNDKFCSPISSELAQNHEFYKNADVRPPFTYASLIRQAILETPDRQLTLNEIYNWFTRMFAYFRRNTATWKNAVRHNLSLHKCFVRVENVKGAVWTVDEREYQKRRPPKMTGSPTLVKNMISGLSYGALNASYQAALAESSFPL
Described as above. Conditions: protein: recombinant; tags: His6-NusA; blunt.

The target of a further data set is T5, NusA-FoxP1RBR-forkhead (Mus musculus, UniProt P58462 433-579).
T5 sequence: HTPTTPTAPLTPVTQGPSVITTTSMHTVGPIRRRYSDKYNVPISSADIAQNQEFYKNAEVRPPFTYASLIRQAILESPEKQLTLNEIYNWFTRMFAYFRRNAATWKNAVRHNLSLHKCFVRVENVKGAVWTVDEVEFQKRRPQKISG
The data set is described as above. Conditions: protein: recombinant; tags: His6-NusA; blunt.

The next data set concerns the target T6, FoxP3ΔN (Mus musculus, UniProt Q99JB6 188-423).
T6 sequence: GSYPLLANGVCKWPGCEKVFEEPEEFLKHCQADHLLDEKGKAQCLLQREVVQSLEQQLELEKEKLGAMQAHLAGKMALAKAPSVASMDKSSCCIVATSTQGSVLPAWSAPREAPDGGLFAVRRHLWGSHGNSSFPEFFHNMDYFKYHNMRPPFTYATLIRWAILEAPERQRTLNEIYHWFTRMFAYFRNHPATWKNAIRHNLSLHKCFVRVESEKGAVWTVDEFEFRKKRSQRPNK
Nature of the data set: EMSA; up to 0.8 uM; nearly undetectable; EMSA: 0.2 uM DNA, 20 mM Tris pH 7.5, 150 mM NaCl, 1.5 mM MgCl2, 2 mM DTT, 30 min at 4 C; anti-HA bead DNA pull-down: 20 min at room temperature; the EMSA IR-FKHM4g length is taken as 31 bp. Conditions: protein: recombinant; tags: His6-NusA cleaved (HRV3C); chain copies: 2; blunt.

Data set [4] concerns the target T1, MBP-FoxP3ΔN. Nature of the data set: MBP pull-down; not efficiently bound; EMSA: 0.2 uM DNA, 20 mM Tris pH 7.5, 150 mM NaCl, 1.5 mM MgCl2, 2 mM DTT, 30 min at 4 C; anti-HA bead DNA pull-down: 20 min at room temperature; the EMSA IR-FKHM4g length is taken as 31 bp. The note with it: protein: recombinant; tags: His6-MBP; blunt.
For data set [5], the target named is T2, FoxP3ΔN;NFAT1 (394-680). Put plainly: restriction enzyme protection; 3.2 uM FoxP3, 0.4 uM NFAT; XhoI protected, BamHI accessible; EMSA: 0.2 uM DNA, 20 mM Tris pH 7.5, 150 mM NaCl, 1.5 mM MgCl2, 2 mM DTT, 30 min at 4 C; anti-HA bead DNA pull-down: 20 min at room temperature; the EMSA IR-FKHM4g length is taken as 31 bp. The note with it: protein: recombinant;recombinant; tags: His6-NusA cleaved (HRV3C);His6-NusA cleaved; blunt.

B1: Major seq8-seq9 (dsDNA)
DNA 1: GTTTGTTTCCCAGGTAAAACAACC
DNA 2: GGTTGTTTTACCTGGGAAACAAAC
Turning to B1, the binding result with MBP-FoxP3ΔN [1] is “binds”.

B2: IR-FKHM4g (47bp) (dsDNA)
DNA 1: TTAGGAAAATTTGTTTACTCGAGTAAACAGTGGATCCGAATTCATAT
DNA 2: ATATGAATTCGGATCCACTGTTTACTCGAGTAAACAAATTTTCCTAA
As for B2, the binding result with FoxP3ΔN;NFAT1 (394-680) [2] is listed as “binds”.

B3: IR-seq2 (dsDNA)
DNA 1: ATTTTGCGTCTCGAGACGCAAAAT
DNA 2: ATTTTGCGTCTCGAGACGCAAAAT
Take B3: in the data set with MBP-FoxP3ΔN [3], the binding result is listed as “no binding”.

B4: sFKHM (31bp) (dsDNA)
DNA 1: TTAGGAAAATTTGTTTACTCGACGCGGCAAA
DNA 2: TTTGCCGCGTCGAGTAAACAAATTTTCCTAA
B4: the binding result was “binds” in the data set with NusA-FoxP2RBR-forkhead, “binds” in the data set with NusA-FoxP4RBR-forkhead, “binds” in the data set with NusA-FoxP1RBR-forkhead and “no binding” with FoxP3ΔN.

B5: IR-seq1 (dsDNA)
DNA 1: ATTTCGCGTCTCGAGACGCGAAAT
DNA 2: ATTTCGCGTCTCGAGACGCGAAAT
In the case of B5, in the data set with MBP-FoxP3ΔN [3], the binding result is “no binding”.

B6: IR-seq5 (dsDNA)
DNA 1: TTAGGAAAATTTTGCATTTCGAAATGCAAAA
DNA 2: TTTTGCATTTCGAAATGCAAAATTTTCCTAA
Consider B6, for which, in the data set with MBP-FoxP3ΔN [4], the binding result is “no binding”.

B7: FKHM-seq8 (dsDNA)
DNA 1: TTAGGAAAATTTGTTTACTCGAGGAAACAAA
DNA 2: TTTGTTTCCTCGAGTAAACAAATTTTCCTAA
Regarding B7, the binding result with MBP-FoxP3ΔN [3] is “binds”.

B8: IR-seq8 (dsDNA)
DNA 1: TTAGGAAAATTTGTTTCCTCGAGGAAACAAA
DNA 2: TTTGTTTCCTCGAGGAAACAAATTTTCCTAA
On to B8, for which, in the data set with MBP-FoxP3ΔN [4], the binding result is recorded as “no binding”.

B9: FKHM-seq9 (dsDNA)
DNA 1: TTAGGAAAATTTGTTTACTCGATAAAACAAA
DNA 2: TTTGTTTTATCGAGTAAACAAATTTTCCTAA
For the molecule B9, the binding result with MBP-FoxP3ΔN [3] is reported as “binds”.

B10: IR-seq11 (dsDNA)
DNA 1: TTAGGAAAATTTGTTTAATCGATTAAACAAA
DNA 2: TTTGTTTAATCGATTAAACAAATTTTCCTAA
Turning to B10, the binding result with MBP-FoxP3ΔN [4] is “no binding”.

B11: FKHM-seq11 (dsDNA)
DNA 1: TTAGGAAAATTTGTTTACTCGATTAAACAAA
DNA 2: TTTGTTTAATCGAGTAAACAAATTTTCCTAA
Turning to B11, the binding result with MBP-FoxP3ΔN [3] is recorded as “binds”.

B12: FKHM-seq2 (dsDNA)
DNA 1: ATTTGTTTACTCGAGACGCAAAAT
DNA 2: ATTTTGCGTCTCGAGTAAACAAAT
On to B12, for which, in the data set with MBP-FoxP3ΔN [3], the binding result was “binds”.

B13: Major FKHM-seq5 (dsDNA)
DNA 1: AAATGTTTACTAGGAATGCAATGA
DNA 2: TCATTGCATTCCTAGTAAACATTT
Consider B13, for which the binding result with MBP-FoxP3ΔN [3] is listed as “binds”.

B14: IR-seq3 (dsDNA)
DNA 1: ATGATGCATCTCGAGATGCATCAT
DNA 2: ATGATGCATCTCGAGATGCATCAT
For B14, the binding result with MBP-FoxP3ΔN [3] is reported as “no binding”.

B15: FKHM-seq1 (dsDNA)
DNA 1: ATTTGTTTACTCGAGACGCGAAAT
DNA 2: ATTTCGCGTCTCGAGTAAACAAAT
B15: the binding result in the data set with MBP-FoxP3ΔN [3] was “binds”.

B16: FKHM-seq3 (dsDNA)
DNA 1: ATTTGTTTACTCGAGATGCATCAT
DNA 2: ATGATGCATCTCGAGTAAACAAAT
Consider B16, for which the binding result with MBP-FoxP3ΔN [3] is “binds”.

B17: FKHM-seq5 (dsDNA)
DNA 1: TTAGGAAAATTTGTTTACTCGAAATGCAAAA
DNA 2: TTTTGCATTTCGAGTAAACAAATTTTCCTAA
In the case of B17, the binding result in the data set with MBP-FoxP3ΔN [3] is “binds”.

B18: IR-FKHM11g (54bp) (dsDNA)
DNA 1: TTAGGAAAATTTGTTTACTCGAGTGTACGGTAAACAGTGGATCCGAATTCATAT
DNA 2: ATATGAATTCGGATCCACTGTTTACCGTACACTCGAGTAAACAAATTTTCCTAA
Turning to B18, the binding result with FoxP3ΔN;NFAT1 (394-680) [5] is “binds”.

B19: sFKHM (22bp) (dsDNA)
DNA 1: TTAGGAAAATTTGTTTACTCGA
DNA 2: TCGAGTAAACAAATTTTCCTAA
Take B19: the binding result in the data set with FoxP3ΔN is “no binding”.

B20: IR-seq9 (dsDNA)
DNA 1: TTAGGAAAATTTGTTTTATCGATAAAACAAA
DNA 2: TTTGTTTTATCGATAAAACAAATTTTCCTAA
On to B20, for which, in the data set with MBP-FoxP3ΔN [4], the binding result was “no binding”.
